These are literature values, as cited in patent US20050164248A1, “Compositions isolated from bovine tissues and methods for their use” (priority 1999, published 2005).

For the data set, the system named is Candida albicans. Particulars: general statement, no value.

B1: Lactoferrin (protein, UniProt P02788 20-710, looked up)
Lactotransferrin: GRRRSVQWCAVSQPEATKCFQWQRNMRKVRGPPVSCIKRDSPIQCIQAIAENRADAVTLDGGFIYEAGLAPYKLRPVAAEVYGTERQPRTHYYAVAVVKKGGSFQLNELQGLKSCHTGLRRTAGWNVPIGTLRPFLNWTGPPEPIEAAVARFFSASCVPGADKGQFPNLCRLCAGTGENKCAFSSQEPYFSYSGAFKCLRDGAGDVAFIRESTVFEDLSDEAERDEYELLCPDNTRKPVDKFKDCHLARVPSHAVVARSVNGKEDAIWNLLRQAQEKFGKDKSPKFQLFGSPSGQKDLLFKDSAIGFSRVPPRIDSGLYLGSGYFTAIQNLRKSEEEVAARRARVVWCAVGEQELRKCNQWSGLSEGSVTCSSASTTEDCIALVLKGEADAMSLDGGYVYTAGKCGLVPVLAENYKSQQSSDPDPNCVDRPVEGYLAVAVVRRSDTSLTWNSVKGKKSCHTAVDRTAGWNIPMGLLFNQTGSCKFDEYFSQSCAPGSDPRSNLCALCIGDEQGENKCVPNSNERYYGYTGAFRCLAENAGDVAFVKDVTVLQNTDGNNNEAWAKDLKLADFALLCLDGKRKPVTEARSCHLAMAPNHAVVSRMDKVERLKQVLLHQQAKFGRNGSDCPDKFCLFQSETKNLLFNDNTECLARLHGKTTYEKYLGPQYVAGITNLKKCSTSPLLEACEFLRK
Turning to B1, the “inhibitory activity against Candida (statement on control peptide)” value was “extremely inhibitory”.
